Assay results: publication PMC8982864 (PLoS Biology, 2022)

Legend:
[1] = molecular target: CSPG4 D1401-560 401-560 (Homo sapiens) (UniProt Q6UVK1); conditions: cited from earlier work
[2] = molecular target: FZD2 CRD (CRD2) CRD (Homo sapiens) (UniProt Q14332); conditions: cited from earlier work
[3] = molecular target: CSPG4 domain 1 fragment, residues 401-560 (D1401-560), C-terminal GFP (UniProt Q6UVK1); assay: Bio-layer interferometry (Octet Red 96, ForteBio); conditions: pH 7.5; 25°C; PBS (composition not stated)
[4] = molecular target: Frizzled-2 cysteine-rich domain Fc fusion (FZD2-CRD-Fc, 'CRD2') (UniProt Q14332); assay: Bio-layer interferometry (Octet Red 96, ForteBio); conditions: 25°C, PBS (composition not stated)
[5] = molecular target: TcdB-biotin (biotinylated full-length TcdB) (Clostridioides difficile (VPI 10463 …, UniProt P18177 1-2366)); assay: ELISA; conditions: both partners purified

CSPG4 domain 1 fragment, residues 401-560 (D1401-560), C-terminal GFP, sequence (Q6UVK1 whole entry, the tested form may be a part): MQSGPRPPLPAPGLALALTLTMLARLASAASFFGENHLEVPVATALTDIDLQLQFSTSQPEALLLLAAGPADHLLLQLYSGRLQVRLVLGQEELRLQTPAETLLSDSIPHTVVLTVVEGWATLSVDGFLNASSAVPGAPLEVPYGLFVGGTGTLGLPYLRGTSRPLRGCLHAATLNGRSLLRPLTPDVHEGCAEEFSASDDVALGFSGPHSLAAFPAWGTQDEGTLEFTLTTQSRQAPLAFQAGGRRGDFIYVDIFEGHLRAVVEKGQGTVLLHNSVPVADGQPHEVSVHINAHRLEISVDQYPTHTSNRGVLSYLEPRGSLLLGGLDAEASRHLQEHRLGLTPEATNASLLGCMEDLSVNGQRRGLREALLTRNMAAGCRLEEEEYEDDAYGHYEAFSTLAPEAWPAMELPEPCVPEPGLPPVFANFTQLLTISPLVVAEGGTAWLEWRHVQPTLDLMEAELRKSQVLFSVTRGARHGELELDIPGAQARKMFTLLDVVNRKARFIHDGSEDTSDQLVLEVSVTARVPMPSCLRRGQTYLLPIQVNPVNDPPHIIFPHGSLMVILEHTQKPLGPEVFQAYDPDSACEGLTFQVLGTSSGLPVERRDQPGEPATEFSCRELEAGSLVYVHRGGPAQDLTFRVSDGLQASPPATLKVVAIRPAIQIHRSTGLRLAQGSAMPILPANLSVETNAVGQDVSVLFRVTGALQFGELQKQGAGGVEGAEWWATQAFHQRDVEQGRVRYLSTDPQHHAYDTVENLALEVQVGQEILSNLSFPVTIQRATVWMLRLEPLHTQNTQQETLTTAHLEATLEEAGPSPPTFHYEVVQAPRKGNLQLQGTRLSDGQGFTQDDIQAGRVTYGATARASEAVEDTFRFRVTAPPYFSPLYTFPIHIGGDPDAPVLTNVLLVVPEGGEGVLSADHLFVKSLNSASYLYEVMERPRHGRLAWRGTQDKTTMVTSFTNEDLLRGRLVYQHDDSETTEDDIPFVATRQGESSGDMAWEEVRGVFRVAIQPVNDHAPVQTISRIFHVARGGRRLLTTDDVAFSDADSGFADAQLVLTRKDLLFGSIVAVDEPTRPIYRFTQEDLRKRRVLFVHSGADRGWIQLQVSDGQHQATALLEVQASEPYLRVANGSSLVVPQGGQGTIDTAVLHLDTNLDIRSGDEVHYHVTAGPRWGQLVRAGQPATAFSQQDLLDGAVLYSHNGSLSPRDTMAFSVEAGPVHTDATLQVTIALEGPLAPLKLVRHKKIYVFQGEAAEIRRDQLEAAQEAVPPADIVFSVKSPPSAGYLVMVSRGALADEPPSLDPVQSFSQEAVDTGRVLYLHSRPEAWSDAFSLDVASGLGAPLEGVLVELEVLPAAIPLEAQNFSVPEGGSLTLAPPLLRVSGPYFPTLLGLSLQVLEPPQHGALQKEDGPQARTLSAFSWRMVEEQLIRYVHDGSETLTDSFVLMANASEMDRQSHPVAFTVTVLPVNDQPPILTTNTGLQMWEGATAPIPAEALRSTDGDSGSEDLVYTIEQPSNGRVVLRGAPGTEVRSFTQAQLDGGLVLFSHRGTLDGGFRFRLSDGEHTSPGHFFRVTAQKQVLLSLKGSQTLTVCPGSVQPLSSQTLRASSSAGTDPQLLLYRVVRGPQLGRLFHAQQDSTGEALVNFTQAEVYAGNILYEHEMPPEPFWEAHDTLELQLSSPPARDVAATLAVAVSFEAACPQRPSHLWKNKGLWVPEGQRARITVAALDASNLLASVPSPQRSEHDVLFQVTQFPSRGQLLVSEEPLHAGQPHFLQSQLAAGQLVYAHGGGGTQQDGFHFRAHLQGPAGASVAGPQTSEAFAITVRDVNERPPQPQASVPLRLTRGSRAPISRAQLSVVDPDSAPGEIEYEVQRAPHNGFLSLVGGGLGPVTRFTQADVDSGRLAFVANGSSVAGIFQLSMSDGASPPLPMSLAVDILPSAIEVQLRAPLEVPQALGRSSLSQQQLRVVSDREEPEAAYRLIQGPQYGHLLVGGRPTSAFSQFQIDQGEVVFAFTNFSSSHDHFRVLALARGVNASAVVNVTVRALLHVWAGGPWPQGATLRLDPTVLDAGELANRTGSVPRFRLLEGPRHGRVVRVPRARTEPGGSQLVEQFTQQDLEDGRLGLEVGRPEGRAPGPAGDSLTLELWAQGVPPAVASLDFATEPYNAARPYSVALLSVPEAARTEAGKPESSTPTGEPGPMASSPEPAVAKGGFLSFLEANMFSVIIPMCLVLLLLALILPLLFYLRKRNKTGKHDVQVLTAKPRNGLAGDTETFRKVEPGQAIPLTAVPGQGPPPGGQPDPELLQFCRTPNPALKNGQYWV

TcdB (from UniProt P18177)
Kd [1]: 29 nM | Kd [2]: 19 nM

Toxin B (TcdB), full length, C-terminal 6xHis
KD [3]: approximately 10 nM | KD ([4]; pH 5): approximately 1 μM | KD ([4]; pH 7.5): approximately 12 nM

B1: CSPG4 domain 1 fragment D1_(401-560) with C-terminal GFP tag (domain or fragment, UniProt Q6UVK1 401-560, looked up)
chain: LAPEAWPAMELPEPCVPEPGLPPVFANFTQLLTISPLVVAEGGTAWLEWRHVQPTLDLMEAELRKSQVLFSVTRGARHGELELDIPGAQARKMFTLLDVVNRKARFIHDGSEDTSDQLVLEVSVTARVPMPSCLRRGQTYLLPIQVNPVNDPPHIIFPHG
notes: not shown: GFP, C-terminal, kept
binding result [5]: binds
